Experimental data reported in US20210292396A1 (INTERNATIONAL AIDS VACCINE INITIATIVE, published 2021).

Experiments:
Assay in all cases: cell-based or functional assay
[1] = target: HIV Env of isolate 928-28 (HIV)
[2] = target: HIV Env of isolate TRO.11 (HIV)
[3] = target: HIV Env of isolate BJOX028000.10.3 (HIV)
[4] = target: HIV Env of isolate T278-50 (HIV)
HIV Env of isolate CNE5 = HIV Env of isolate CNE5 (HIV)
[5] = target: HIV Env of isolate 62357_14_D3_4589 (HIV)
[6] = target: HIV Env of isolate 3301.v1.c24 (HIV)
[7] = target: HIV Env of isolate T251-18 (HIV)
[8] = target: HIV Env of isolate R2184.c04 (HIV)
[9] = target: HIV Env of isolate BJOX010000.06.2 (HIV)
[10] = target: HIV Env of isolate CAP210.2.00.E8 (HIV)
[11] = target: HIV Env of isolate 1394C9G1(Rev-) (HIV)
[12] = target: HIV Env of isolate SC422661.8 (HIV)
[13] = target: HIV Env of isolate 6041.v3.c23 (HIV)
[14] = target: HIV Env of isolate 6952.v1.c20 (HIV)
HIV Env of isolate 263-8 = HIV Env of isolate 263-8 (HIV)
[15] = target: HIV Env of isolate ZM247v1(Rev-) (HIV)
[16] = target: HIV Env of isolate 6811.v7.c18 (HIV)
[17] = target: HIV Env of isolate Ce703010054_2A2 (HIV)
[18] = target: HIV Env of isolate WITO4160.33 (HIV)
[19] = target: HIV Env of isolate QH0692.42 (HIV)
[20] = target: HIV Env of isolate CAAN5342.A2 (HIV)
[21] = target: HIV Env of isolate BJOX009000.02.4 (HIV)
[22] = target: HIV Env of isolate CAP45.2.00.G3 (HIV)
[23] = target: HIV Env of isolate TRO.11 (HIV); remark: listed apart in the source
[24] = target: HIV Env of isolate TRJO4551.58 (HIV)
[25] = target: HIV Env of isolate 0260.v5.c36 (HIV)
[26] = target: HIV Env of isolate 62357_14_D3_4589 (HIV); remark: listed apart in the source
[27] = target: HIV Env of isolate 1054_07_TC4_1499 (HIV)
[28] = target: HIV Env of isolate 0815.v3.c3 (HIV)
[29] = target: HIV Env of isolate Du156.12 (HIV)
[30] = target: HIV Env of isolate 246F_C1G (HIV)
[31] = target: HIV Env of isolate 6480.v4.c25 (HIV)
[32] = target: HIV Env of isolate 1056_10_TA11_1826 (HIV)
HIV Env of isolate CNE17 = HIV Env of isolate CNE17 (HIV)
HIV Env of isolate CNE30 = HIV Env of isolate CNE30 (HIV)
[33] = target: HIV Env of isolate CAP210.2.00.E8 (HIV); remark: listed apart in the source
[34] = target: HIV Env of isolate 191084_B7-19 (HIV)
[35] = target: HIV Env of isolate 1012_11_TC21_3257 (HIV)
[36] = target: HIV Env of isolate 6535.3 (HIV)
[37] = target: HIV Env of isolate P1981_C5_3 (HIV)
[38] = target: HIV Env of isolate ZM247v1(Rev-) (HIV); remark: listed apart in the source
[39] = target: HIV Env of isolate RHPA4259.7 (HIV)
[40] = target: HIV Env of isolate ZM135M.PL10a (HIV)
[41] = target: HIV Env of isolate Q23.17 (HIV)

B1: PGT-121 (antibody, V domains shown)
VH: QMQLQESGPGLVKPSETLSLTCSVSGASISDSYWSWIRRSPGKGLEWIGYVHKSGDTNYSPSLKSRVNLSLDTSKNQVSLSLVAATAADSGKYYCARTLHGRRIYGIVAFNEWFTYFYMDVWGNGTQVTVSS
VL: SDISVAPGETARISCGEKSLGSRAVQWYQHRAGQAPSLIIYNNQDRPSGIPERFSGSPDSPFGTTATLTITSVEAGDEADYYCHIWDSRVPTKWVFGGGTTLTVLG
[1]
  neutralization IC50: 44.2 µg/mL
[2]
  neutralization IC50: 0.005 µg/mL
[3]
  neutralization IC50: > 50 µg/mL
[4]
  neutralization IC50: > 50 µg/mL
HIV Env of isolate CNE5
  neutralization IC50: > 50 µg/mL
[5]
  neutralization IC50: 2.6 µg/mL
[6]
  neutralization IC50: 0.008 µg/mL
[7]
  neutralization IC50: 29 µg/mL
[8]
  neutralization IC50: > 50 µg/mL
[9]
  neutralization IC50: > 50 µg/mL
[10]
  neutralization IC50: 26.3 µg/mL
[11]
  neutralization IC50: 0.264 µg/mL
[12]
  neutralization IC50: 0.038 µg/mL
[13]
  neutralization IC50: > 50 µg/mL
[14]
  neutralization IC50: 0.056 µg/mL
HIV Env of isolate 263-8
  neutralization IC50: 0.648 µg/mL
[15]
  neutralization IC50: 0.028 µg/mL
[16]
  neutralization IC50: 0.001 µg/mL
[17]
  neutralization IC50: > 50 µg/mL
[18]
  neutralization IC50: 0.334 µg/mL
[19]
  neutralization IC50: 0.302 µg/mL
[20]
  neutralization IC50: 0.007 µg/mL
[21]
  neutralization (Table 6 value): 0.243
[22]
  neutralization (Table 6 value): 0.0713
[23]
  neutralization (Table 6 value): 0.00843
[24]
  neutralization (Table 6 value): 0.406
[25]
  neutralization (Table 6 value): 0.00144
[26]
  neutralization (Table 6 value): 0.392
[27]
  neutralization (Table 6 value): 0.0334
[28]
  neutralization (Table 6 value): 7.9e-05
[29]
  neutralization (Table 6 value): 0.00534
[30]
  neutralization (Table 6 value): 0.0215
[31]
  neutralization (Table 6 value): 0.000306
[32]
  neutralization (Table 6 value): 0.0162
HIV Env of isolate CNE17
  neutralization (Table 6 value): 0.225
HIV Env of isolate CNE30
  neutralization (Table 6 value): 0.00313
[33]
  neutralization (Table 6 value): 0.618
[34]
  neutralization (Table 6 value): 0.0247
[35]
  neutralization (Table 6 value): 0.00917
[36]
  neutralization (Table 6 value): 0.00325
[37]
  neutralization (Table 6 value): 0.00146
[38]
  neutralization (Table 6 value): 0.0114
[39]
  neutralization (Table 6 value): 0.00915
[40]
  neutralization (Table 6 value): 1.32
[41]
  neutralization (Table 6 value): 0.00412

B2: ePGT121.15.H6.L1 (antibody, V domains shown)
VH: QMQLQESGPGLVKPGETLSLTCSVSGASISSSYWSWLRETPGKGLEWIGYTHHSGDTNYAPSLKSRVHLGLHPSKNQVSLSLTSVTAADTAVYYCARTLHGRRIYGVVAFNEFFTYFYWEVWGKGTQVTVSS
VL: SDISVAPGETVRISCGGESIGSRAVQWYQHRAGQAPKLIIYNNQDRPPGIPERFSGSPDIDFGTTATLTITNVEAGDEATYYCHIWDSRRPTNWVFGGGTTLTVL
[21]
  neutralization (Table 6 value): 0.0166
[22]
  neutralization (Table 6 value): 1.8e-05
[23]
  neutralization (Table 6 value): 0.0014
[24]
  neutralization (Table 6 value): 0.00673
[25]
  neutralization (Table 6 value): 0.00217
[26]
  neutralization (Table 6 value): 0.0132
[27]
  neutralization (Table 6 value): 0.00129
[28]
  neutralization (Table 6 value): 0.00022
[29]
  neutralization (Table 6 value): 0.000917
[30]
  neutralization (Table 6 value): 0.00278
[31]
  neutralization (Table 6 value): 0.000826
[32]
  neutralization (Table 6 value): 0.00186
HIV Env of isolate CNE17
  neutralization (Table 6 value): 0.0101
HIV Env of isolate CNE30
  neutralization (Table 6 value): 0.00289
[33]
  neutralization (Table 6 value): 0.0311
[34]
  neutralization (Table 6 value): 0.00312
[35]
  neutralization (Table 6 value): 0.00194
[36]
  neutralization (Table 6 value): 0.00121
[37]
  neutralization (Table 6 value): 0.000543
[38]
  neutralization (Table 6 value): 0.00191
[39]
  neutralization (Table 6 value): 0.00225
[40]
  neutralization (Table 6 value): 0.168
[41]
  neutralization (Table 6 value): 0.00146
